In this test the target is T1, low-density lipoprotein receptor-related protein 1 (LRP1) (UniProt Q07954 20-4544).
T1 construct: low-density lipoprotein receptor-related protein 1 (LRP1), full length, purified from placenta; also called full-length LRP1; purified LRP1
Kind of test: SPR; Biacore 3000; full-length LRP1 amine-coupled to a CM5 chip; sFRP-5 (1.6-100 nmol/l) flowed over at 20 ul/min, 25°C, in HBS-P (0.01 M HEPES pH 7.4, 0.15 M NaCl, 0.005% P20) with 1 mM CaCl2; Req from a pseudo-first order fit with a nonspecific component, plotted against concentration and fitted to a single class of sites. The following applies: both partners purified. A general note: SPR reads the build-up and loss of mass on a sensor chip optically.

T1 sequence (Q07954 20-4544): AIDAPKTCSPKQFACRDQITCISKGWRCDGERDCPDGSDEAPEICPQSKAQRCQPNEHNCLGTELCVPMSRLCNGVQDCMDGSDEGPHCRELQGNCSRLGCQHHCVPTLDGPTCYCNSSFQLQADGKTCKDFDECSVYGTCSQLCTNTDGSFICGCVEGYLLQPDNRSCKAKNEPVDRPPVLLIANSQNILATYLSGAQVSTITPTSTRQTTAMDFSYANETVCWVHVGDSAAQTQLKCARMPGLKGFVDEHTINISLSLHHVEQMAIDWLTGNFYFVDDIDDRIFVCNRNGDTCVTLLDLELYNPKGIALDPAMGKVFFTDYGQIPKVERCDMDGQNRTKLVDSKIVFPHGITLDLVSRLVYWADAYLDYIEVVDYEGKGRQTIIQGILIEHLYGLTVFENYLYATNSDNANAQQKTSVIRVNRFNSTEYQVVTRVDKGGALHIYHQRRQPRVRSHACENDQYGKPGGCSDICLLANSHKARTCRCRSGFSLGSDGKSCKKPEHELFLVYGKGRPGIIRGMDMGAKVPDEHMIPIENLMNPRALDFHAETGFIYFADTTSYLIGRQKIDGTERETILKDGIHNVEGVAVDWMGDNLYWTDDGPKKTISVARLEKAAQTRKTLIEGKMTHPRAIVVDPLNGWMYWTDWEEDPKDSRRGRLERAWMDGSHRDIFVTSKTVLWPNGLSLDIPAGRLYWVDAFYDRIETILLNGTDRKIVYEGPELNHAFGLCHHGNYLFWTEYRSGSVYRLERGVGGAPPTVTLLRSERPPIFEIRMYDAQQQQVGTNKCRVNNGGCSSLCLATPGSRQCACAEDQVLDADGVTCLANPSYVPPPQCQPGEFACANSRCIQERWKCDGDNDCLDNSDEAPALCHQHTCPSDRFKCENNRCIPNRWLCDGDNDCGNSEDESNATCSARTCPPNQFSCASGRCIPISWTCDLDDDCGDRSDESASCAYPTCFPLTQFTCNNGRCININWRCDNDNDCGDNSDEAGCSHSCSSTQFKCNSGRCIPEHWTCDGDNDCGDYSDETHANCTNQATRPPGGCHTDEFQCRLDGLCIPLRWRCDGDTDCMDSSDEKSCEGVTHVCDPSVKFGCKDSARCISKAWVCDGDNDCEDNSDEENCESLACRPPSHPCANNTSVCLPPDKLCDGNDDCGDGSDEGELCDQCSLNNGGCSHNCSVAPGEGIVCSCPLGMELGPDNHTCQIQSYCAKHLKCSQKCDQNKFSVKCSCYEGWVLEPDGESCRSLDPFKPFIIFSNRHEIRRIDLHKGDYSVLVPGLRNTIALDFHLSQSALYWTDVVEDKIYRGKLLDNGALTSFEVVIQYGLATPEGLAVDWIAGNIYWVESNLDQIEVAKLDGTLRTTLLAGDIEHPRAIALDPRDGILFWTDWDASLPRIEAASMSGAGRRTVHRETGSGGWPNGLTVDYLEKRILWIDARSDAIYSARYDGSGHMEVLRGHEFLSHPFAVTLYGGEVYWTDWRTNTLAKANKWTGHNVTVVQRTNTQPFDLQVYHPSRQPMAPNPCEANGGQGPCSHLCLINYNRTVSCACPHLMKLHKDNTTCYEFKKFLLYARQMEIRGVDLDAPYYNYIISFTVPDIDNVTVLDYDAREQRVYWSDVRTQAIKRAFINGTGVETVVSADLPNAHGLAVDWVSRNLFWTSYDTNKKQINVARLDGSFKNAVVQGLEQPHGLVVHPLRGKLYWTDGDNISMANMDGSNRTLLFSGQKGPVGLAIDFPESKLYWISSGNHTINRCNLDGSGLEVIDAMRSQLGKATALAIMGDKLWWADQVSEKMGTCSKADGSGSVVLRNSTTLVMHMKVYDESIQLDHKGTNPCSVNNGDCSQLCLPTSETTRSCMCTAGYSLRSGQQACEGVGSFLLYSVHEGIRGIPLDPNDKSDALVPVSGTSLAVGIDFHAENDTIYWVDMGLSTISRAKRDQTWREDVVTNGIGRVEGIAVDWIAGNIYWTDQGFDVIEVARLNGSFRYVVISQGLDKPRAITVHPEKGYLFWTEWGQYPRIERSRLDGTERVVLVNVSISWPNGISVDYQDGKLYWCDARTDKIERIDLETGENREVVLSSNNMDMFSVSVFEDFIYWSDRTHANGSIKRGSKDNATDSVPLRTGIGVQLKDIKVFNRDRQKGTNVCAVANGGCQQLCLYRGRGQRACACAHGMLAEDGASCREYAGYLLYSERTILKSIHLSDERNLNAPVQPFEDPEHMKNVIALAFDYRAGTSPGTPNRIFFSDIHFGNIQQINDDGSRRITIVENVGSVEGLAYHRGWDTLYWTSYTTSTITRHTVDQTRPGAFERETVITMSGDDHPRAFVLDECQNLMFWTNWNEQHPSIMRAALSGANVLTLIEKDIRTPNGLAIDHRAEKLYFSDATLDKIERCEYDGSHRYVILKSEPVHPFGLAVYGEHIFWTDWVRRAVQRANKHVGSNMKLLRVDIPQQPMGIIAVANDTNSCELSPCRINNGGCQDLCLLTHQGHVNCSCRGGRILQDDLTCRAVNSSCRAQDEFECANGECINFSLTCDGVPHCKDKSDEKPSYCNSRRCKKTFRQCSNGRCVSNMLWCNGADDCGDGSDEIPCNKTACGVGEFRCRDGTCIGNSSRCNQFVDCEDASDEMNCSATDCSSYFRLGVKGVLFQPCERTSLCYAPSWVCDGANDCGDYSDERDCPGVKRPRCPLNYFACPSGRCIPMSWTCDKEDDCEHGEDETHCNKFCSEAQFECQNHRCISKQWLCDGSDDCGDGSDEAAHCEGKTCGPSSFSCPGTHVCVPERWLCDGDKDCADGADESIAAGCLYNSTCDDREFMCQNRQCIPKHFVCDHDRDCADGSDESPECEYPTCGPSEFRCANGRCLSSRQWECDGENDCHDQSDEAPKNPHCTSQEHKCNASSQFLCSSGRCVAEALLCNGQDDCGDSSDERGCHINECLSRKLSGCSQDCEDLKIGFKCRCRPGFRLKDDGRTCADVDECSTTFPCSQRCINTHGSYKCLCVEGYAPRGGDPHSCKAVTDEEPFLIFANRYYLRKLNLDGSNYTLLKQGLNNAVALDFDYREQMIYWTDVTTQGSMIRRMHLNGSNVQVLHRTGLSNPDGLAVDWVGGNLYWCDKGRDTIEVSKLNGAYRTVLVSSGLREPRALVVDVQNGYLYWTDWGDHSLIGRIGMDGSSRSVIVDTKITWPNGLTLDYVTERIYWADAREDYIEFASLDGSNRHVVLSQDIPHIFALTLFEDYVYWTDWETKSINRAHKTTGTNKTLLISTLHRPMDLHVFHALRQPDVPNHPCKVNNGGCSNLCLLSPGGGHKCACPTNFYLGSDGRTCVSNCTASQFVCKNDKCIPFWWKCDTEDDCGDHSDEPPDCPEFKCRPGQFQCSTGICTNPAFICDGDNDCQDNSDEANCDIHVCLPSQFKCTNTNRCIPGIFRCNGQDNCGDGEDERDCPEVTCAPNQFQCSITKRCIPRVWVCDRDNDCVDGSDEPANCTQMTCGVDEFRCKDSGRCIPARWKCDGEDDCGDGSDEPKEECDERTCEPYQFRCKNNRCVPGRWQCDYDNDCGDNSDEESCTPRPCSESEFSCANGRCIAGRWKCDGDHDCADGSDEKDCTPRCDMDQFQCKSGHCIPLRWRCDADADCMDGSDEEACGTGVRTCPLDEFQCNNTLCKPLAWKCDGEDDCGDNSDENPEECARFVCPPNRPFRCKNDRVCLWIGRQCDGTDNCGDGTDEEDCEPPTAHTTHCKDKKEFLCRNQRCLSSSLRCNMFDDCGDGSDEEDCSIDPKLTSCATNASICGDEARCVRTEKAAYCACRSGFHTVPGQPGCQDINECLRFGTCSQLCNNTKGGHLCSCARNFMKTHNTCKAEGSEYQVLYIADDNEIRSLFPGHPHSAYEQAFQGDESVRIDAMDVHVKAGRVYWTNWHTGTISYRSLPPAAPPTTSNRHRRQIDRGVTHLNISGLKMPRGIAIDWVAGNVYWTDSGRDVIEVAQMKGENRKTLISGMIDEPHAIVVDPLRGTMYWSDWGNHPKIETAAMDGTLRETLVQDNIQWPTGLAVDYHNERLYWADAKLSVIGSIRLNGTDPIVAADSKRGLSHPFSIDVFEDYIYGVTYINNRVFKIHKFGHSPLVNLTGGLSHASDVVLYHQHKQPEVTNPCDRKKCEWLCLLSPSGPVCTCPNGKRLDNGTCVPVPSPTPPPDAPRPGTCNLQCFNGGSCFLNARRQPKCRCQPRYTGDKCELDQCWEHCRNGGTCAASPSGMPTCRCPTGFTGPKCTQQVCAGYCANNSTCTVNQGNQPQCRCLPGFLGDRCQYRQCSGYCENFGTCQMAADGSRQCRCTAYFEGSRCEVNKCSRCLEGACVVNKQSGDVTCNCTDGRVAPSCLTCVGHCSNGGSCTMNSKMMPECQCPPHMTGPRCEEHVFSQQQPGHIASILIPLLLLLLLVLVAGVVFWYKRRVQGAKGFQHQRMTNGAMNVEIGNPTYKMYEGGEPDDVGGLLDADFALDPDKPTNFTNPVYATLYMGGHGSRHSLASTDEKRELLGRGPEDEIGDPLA

B1: secreted frizzled-related protein 5 (sFRP-5) (ligand, UniProt Q5T4F7 30-317, looked up)
chain: EEYDYYGWQAEPLHGRSYSKPPQCLDIPADLPLCHTVGYKRMRLPNLLEHESLAEVKQQASSWLPLLAKRCHSDTQVFLCSLFAPVCLDRPIYPCRSLCEAVRAGCAPLMEAYGFPWPEMLHCHKFPLDNDLCIAVQFGHLPATAPPVTKICAQCEMEHSADGLMEQMCSSDFVVKMRIKEIKIENGDRKLIGAQKKKKLLKPGPLKRKDTKRLVLHMKNGAGCPCPQLDSLAGSFLVMGRKVDGQLLLMAVYRWDKKNKEMKFAVKFMFSYPCSLYYPFFYGAAEPH
notes: secreted frizzled-related protein 5 (sFRP-5), commercial recombinant protein; source: bought: R&D Systems 6266-SF-050
Broadly, the Kd is the constant that tells how readily two partners part at equilibrium. For B1, binding was put at a Kd of 32 nM.

Source of the values: article PMC6247401, “Macrophage LRP1 Promotes Diet-Induced Hepatic Inflammation and Metabolic Dysfunction by Modulating Wnt Signaling” (Mediators of Inflammation, 2018).
